{
  "source": "paper PMC12686569",
  "about": "“FaMYB63 and FvWYRKY75 Activate FvPR10.14 Boosting Strawberry Immunity Against Powdery Mildew”",
  "binders": {"B1": {"name": "FvPR10.14-P (FvWRKY75 probe) (dsDNA)", "DNA 1": "ATATATGGGATAGCCAATGTTGACTGCTCGACATTACGTGTATA", "DNA 2": "TATACACGTAATGTCGAGCAGTCAACATTGGCTATCCCATATAT"}},
  "biological_target": "FvWRKY75 (Fragaria vesca, UniProt A0A1S5SLB0 1-190)",
  "sequence (A0A1S5SLB0 entry or part of it)": "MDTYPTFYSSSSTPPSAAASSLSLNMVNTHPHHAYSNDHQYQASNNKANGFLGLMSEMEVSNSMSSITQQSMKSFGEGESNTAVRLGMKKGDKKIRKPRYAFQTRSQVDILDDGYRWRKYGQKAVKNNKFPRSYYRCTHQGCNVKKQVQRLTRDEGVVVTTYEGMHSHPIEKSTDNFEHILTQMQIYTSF",
  "assay": "EMSA; EMSA Kit (Beyotime), according to Wang, Shi, et al. 2022; buffer, salt, pH and temperature not stated",
  "details": "protein: recombinant; tags: His (as stated); blunt",
  "data": [
    {"binder": "B1", "values": [
      {"measurement": "binding result", "result": "binds"}
    ]}
  ]
}
